Measured values: publication PMC5154475, “Dual Therapeutic Action of a Neutralizing Anti-FGF2 Aptamer in Bone Disease and Bone Cancer Pain” (Molecular Therapy, 2016)

Molecular target: T1, mouse recombinant FGF R3(IIIc)-Fc (mouse, UniProt Q61851 21-369)
T1 construct: FGF receptor 3, (IIIc) form, mouse, extracellular domain fused to IgG-Fc portion; also called FGFR3 (murine); source: bought: R&D Systems
T1 sequence (looked up): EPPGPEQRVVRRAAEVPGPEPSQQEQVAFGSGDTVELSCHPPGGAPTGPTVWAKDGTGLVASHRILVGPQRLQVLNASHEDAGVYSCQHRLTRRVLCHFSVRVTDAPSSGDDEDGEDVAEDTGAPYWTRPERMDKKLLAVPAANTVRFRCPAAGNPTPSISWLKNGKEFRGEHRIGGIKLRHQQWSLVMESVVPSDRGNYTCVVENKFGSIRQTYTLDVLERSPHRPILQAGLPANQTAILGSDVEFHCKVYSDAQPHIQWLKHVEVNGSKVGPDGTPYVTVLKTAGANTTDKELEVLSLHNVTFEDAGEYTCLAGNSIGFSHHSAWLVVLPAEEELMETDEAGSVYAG
Assay: SPR; Biacore 2000; FGFR/Fc fusion proteins immobilised onto a CM5 sensor chip via prebound protein A (1,000 RUs); FGF2 injected with or without the RNA aptamer APT-F2; for FGFR1: receptor 100 nmol/l, FGF2 100 nmol/l, heparin 100 nmol/l, APT-F2 150 nmol/l
Settings: both partners purified

- binding result: binds
B1: murine FGF2 (ligand, UniProt P15655 10-154, looked up)
chain: PALPEDGGAAFPPGHFKDPKRLYCKNGGFFLRIHPDGRVDGVREKSDPHVKLQLQAEERGVVSIKGVCANRYLAMKEDGRLLASKCVTEECFFFERLESNNYNTYRSRKYSSWYVALKRTGQYKLGSKTGPGQKAILFLPMSAKS
notes: Fibroblast growth factor 2, mouse, recombinant; also called mouse FGF2; source: bought: PEPROTECH
